Measurements: PMC3893830, “Manipulating Conserved Heme Cavity Residues of Chlorite Dismutase: Effect on Structure, Redox Chemistry, and Reactivity” (Biochemistry, 2013)

Substrate: [O-][Cl+]O
Assay: O2 release, Clark-type oxygen electrode
Type: biochemical, Nitrospira defluvii
Settings: 50 mM phosphate pH 7.0, 30 °C, O2-free buffer, low heme occupancy
From the text: O2 release, Clark-type oxygen electrode on NdCld

B1: NdCld (Nitrospira defluvii; E236A/R199Q) (protein)
chain: ADREKLLTESGVYGTFATFQMDHDWWDLPGESRVISVAEVKGLVEQWSGKILVESYLLRGLSDHADLMFRVHARTLSDTQQFLSAFMGTRLGRHLTSGGLLHGVSKKPTYVAGFPESMKTELQVNGESGSRPYAIVIPIKKDAEWWALDQEARTALMQEHTQAALPYLKTVKQKLYHSTGLDDVDFITYFETERLEDFHNLVRALQQVKAFRHNRRFGHPTLLGTMSPLDEILEKFAQ
notes: N-terminal TEV-cleavable Strep-II tag, N-terminal signal peptide removed; expressed in E. coli Tuner (DE3), StrepTrap purified; homopentamer with heme b
Work on B1 yielded a Km of 184 ± 36 µM, a kcat of 0.9 s⁻¹ and a kcat/Km of 4600 M⁻¹ s⁻¹.
